Results: the supplement of paper PMC10724198
± gives the standard deviation of the averaged measurements.
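Note: PSI is a weighted mean of sequencing reads over stability bins, variants kept only with over 10 reads, mCherry proximal and sfGFP distal, peptide attached via GGGS linker.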

What follows are sequences tested on Saccharomyces cerevisiae (assay: protein stability index of tFT-peptide fusion (C-terminal peptide) (PSI (0-1 scale)); higher = more stable (slower turnover)). Conditions: genetic background: wild type; temperature: 30 C.
KKKKKNKKKKKK was tested, and the protein stability index was 0.705 ± 0.046.
IGPRGPFHLTRI was tested, and the protein stability index was 0.675 ± 0.037.
Work on IRSAGEKDRKRE yielded a protein stability index of 0.696 ± 0.03.
LSFHSYLSPFYL was tested, and the protein stability index was 0.664 ± 0.051.
VCWHSNCVGARH was tested, and the protein stability index was 0.652 ± 0.01.
Sequence STLSSRLSLPYR has a protein stability index of 0.728 ± 0.07.
In the case of YDFHWAYFHSLY, the protein stability index is reported as 0.7113 ± 0.0035.
Work on LASVLRESRIST yielded a protein stability index of 0.671 ± 0.0078.
Sequence ALVGMNVQRRRV has a protein stability index of 0.705 ± 0.018.
PPPTHPHLSSAL gave a protein stability index of 0.73 ± 0.04.
RLSSLSSPPPAF was tested, and the protein stability index was 0.693 ± 0.07.
In the case of AGVVRGGRGVGI, the protein stability index is reported as 0.728 ± 0.025.
For GAVVLSRFRCLP, the protein stability index was 0.639 ± 0.035.
LRPPPPPAQPFV was tested, and the protein stability index was 0.69 ± 0.033.
With FWKSVMRYYFKR the protein stability index was 0.669 ± 0.027.
With RSGFTSSPLRSG the protein stability index was 0.681 ± 0.034.
Work on GLSPDFRFMGVR yielded a protein stability index of 0.667 ± 0.029.
Sequence PESPNCRRTRAL has a protein stability index of 0.661 ± 0.031.
For WVGGVVMVPVLL, the protein stability index was 0.542 ± 0.0094.
Work on RGGERAGETAGQ yielded a protein stability index of 0.695 ± 0.053.
In the case of LQRVPTDAVPDC, the protein stability index is reported as 0.7074 ± 0.0044.
RRSAWCAALPGR showed a protein stability index of 0.704 ± 0.0089.
For PEILSLDPLPSL, the protein stability index was 0.662 ± 0.018.
For SGVAYAVYLVFR, the protein stability index was 0.472 ± 0.047.
PPPPPPGHLPRL gave a protein stability index of 0.76 ± 0.05.
In the case of LGKSRVHLWTGT, the protein stability index is reported as 0.706 ± 0.04.
With SVYLIRSLEALR the protein stability index was 0.679 ± 0.019.
KYINSASLIVYY showed a protein stability index of 0.693 ± 0.06.
IWQLRARIQAGW gave a protein stability index of 0.617 ± 0.047.
NLRSSTSKNNKR was tested, and the protein stability index was 0.659 ± 0.079.
Work on TRRGAAAEDQEK yielded a protein stability index of 0.697 ± 0.065.
In the case of WIGRSVGVELCR, the protein stability index is reported as 0.807 ± 0.13.
Work on IRVADLNSSSFC yielded a protein stability index of 0.888 ± 0.16.
PPSFDPSPPSSL showed a protein stability index of 0.696 ± 0.042.
Work on LPRPAPPIRPRT yielded a protein stability index of 0.74 ± 0.013.
Work on FPPLTRPSPIYP yielded a protein stability index of 0.726 ± 0.03.
Sequence LLGVYVRSFGSK has a protein stability index of 0.698 ± 0.015.
Work on GGGGGRAYSWWV yielded a protein stability index of 0.699 ± 0.014.
Sequence SLPLPNTPVPPI has a protein stability index of 0.723 ± 0.081.
VSGDLRRWRNSE showed a protein stability index of 0.673 ± 0.043.
For LFTLFPPFFYSR, the protein stability index was 0.681 ± 0.0079.
PSSPSPPYPFAP showed a protein stability index of 0.684 ± 0.016.
GGGGGRGQGWYR gave a protein stability index of 0.651 ± 0.032.
For AGGRGVPSMGNG, the protein stability index was 0.644 ± 0.033.
Sequence KDEGIRENKPNH has a protein stability index of 0.668 ± 0.078.
HGTRPFLAPMTP was tested, and the protein stability index was 0.672 ± 0.0092.
PRLFLSICPFSF gave a protein stability index of 0.682 ± 0.051.
APPRLSPLPPPP gave a protein stability index of 0.6848 ± 0.0065.
For LPLLPLPSLSPP, the protein stability index was 0.713 ± 0.035.
With GWRGDTSGGGWR the protein stability index was 0.655 ± 0.03.
For KKKSNNNNQKPH, the protein stability index was 0.737 ± 0.016.
GGGWGSRGVCLG gave a protein stability index of 0.65 ± 0.11.
With TQKESEKLNMSK the protein stability index was 0.667 ± 0.064.
With SATWQLPGYFLI the protein stability index was 0.681 ± 0.04.
Sequence VGNNERDLQQIE has a protein stability index of 0.665 ± 0.032.
Sequence GGWCWGWGPGSG has a protein stability index of 0.687 ± 0.056.
Work on CLLFSRQLLESP yielded a protein stability index of 0.678 ± 0.077.
EGASLRWARLRI gave a protein stability index of 0.679 ± 0.037.
In the case of GQVTAHFRLARV, the protein stability index is reported as 0.697 ± 0.049.
Work on GEQGAPLSIRYS yielded a protein stability index of 0.622 ± 0.021.
YSLASRVVNFCA showed a protein stability index of 0.497 ± 0.012.
GTCGDRGRGGER showed a protein stability index of 0.559 ± 0.023.
Sequence TKTNKALKTSKI has a protein stability index of 0.699 ± 0.061.
Work on CGGGCVVGAGWG yielded a protein stability index of 0.727 ± 0.044.
VDGLQYFMYISG showed a protein stability index of 0.68 ± 0.073.
Sequence PPPPPPVRSLPL has a protein stability index of 0.72 ± 0.088.
With NDGLRRLICGGT the protein stability index was 0.68 ± 0.022.
Work on PPPPPPPLVPPL yielded a protein stability index of 0.703 ± 0.12.
With RKKHSHKKAKKK the protein stability index was 0.702 ± 0.014.
With TTWSPWLGVAET the protein stability index was 0.752 ± 0.07.
Sequence PFVFRPGPVPRV has a protein stability index of 0.643 ± 0.1.
With RPTPSHRTPSIG the protein stability index was 0.723 ± 0.016.
For CRRLLIHTALRV, the protein stability index was 0.582 ± 0.015.
GSPPSPPLPPPP gave a protein stability index of 0.674 ± 0.023.
PASYLSSPLRPP gave a protein stability index of 0.667 ± 0.046.
For SRCGSFRICFGT, the protein stability index was 0.638 ± 0.013.
AQAEGLYRGTAD was tested, and the protein stability index was 0.657 ± 0.011.
RGGRGGPGWVAG was tested, and the protein stability index was 0.681 ± 0.025.
YLSPPLLPSFPL gave a protein stability index of 0.728 ± 0.021.
Sequence LKTGTAAGVKDH has a protein stability index of 0.684 ± 0.049.
For CNNRNKRMRKYI, the protein stability index was 0.669 ± 0.031.
For PVCDPCSKATLL, the protein stability index was 0.687 ± 0.015.
With RKICVEDIKESI the protein stability index was 0.669 ± 0.013.
SRSISCPVLSKI was tested, and the protein stability index was 0.707 ± 0.017.
In the case of LLPPPSTPPRLI, the protein stability index is reported as 0.716 ± 0.052.
With NSRMSRYTTPYG the protein stability index was 0.68054 ± 0.00052.
Sequence ASCPLHFTDIRP has a protein stability index of 0.679 ± 0.018.
For ASEGRWVSVMGG, the protein stability index was 0.686 ± 0.05.
KKERINNDLPGS was tested, and the protein stability index was 0.619 ± 0.026.
For FMSMSYDEWAYL, the protein stability index was 0.721 ± 0.064.
Sequence SPPPPSRPTLPP has a protein stability index of 0.593 ± 0.011.
With VRPYPGDDVSWR the protein stability index was 0.693 ± 0.061.
Sequence SFCACDRYRIGV has a protein stability index of 0.727 ± 0.038.
LLGVGYGSGGWR gave a protein stability index of 0.633 ± 0.089.
PPPAPPLLPPLP showed a protein stability index of 0.718 ± 0.033.
Sequence GLSGVVGSRCHC has a protein stability index of 0.713 ± 0.02.
LFDGPFPHLFPT was tested, and the protein stability index was 0.718 ± 0.091.
Sequence CQLCTDPLIDLL has a protein stability index of 0.667 ± 0.03.
Sequence CSFSRRLCHRPT has a protein stability index of 0.701 ± 0.013.
LRERKVYLVKIK gave a protein stability index of 0.575 ± 0.006.
PGDFSWAQCLFP gave a protein stability index of 0.752 ± 0.048.
